Measured values reported in the MegaScale stability set (Tsuboyama et al. 2023).

B1: HEEH_KT_rd6_0007 (parent)
chain: SIEEEIKKAEEAKEKGKTFIHGDFVATTEELLDELLKRLRKKL

Variants of: B1
Test: folding stability dG (cDNA display proteolysis); higher = more stable
Settings: PBS, room temperature

Folding stability dG [kcal/mol]: each site, then its substitutions
F24: Y 1.02
E34: T 1.02 | C 1.64 | D 0.87 | F 1.4 | I 1.36 | G 0.737 | V 0.952 | H 1.02 | R 1.2 | Q 1.17 | N 0.881 | M 1.3 | Y 1.4 | A 1.19 | W 1.86 | S 0.84 | L 1.4 | P 0.383 | K 1.11
K41: S 1.12 | N 1.11 | R 1.54 | W 1.08 | H 1.15 | V 1.07 | T 1.04 | P 0.057 | E 1.19 | Q 1.41 | Y 0.949 | A 1.57 | G 0.924 | D 1.1 | L 1.42 | F 0.949 | M 1.38 | I 1.2
L32: W 0.894 | T 0.441 | G 0.372 | Y 1.22 | P 0.168 | D 0.374 | E 0.247 | A 0.414 | C 0.637 | H 0.393 | K 0.345 | R 0.281 | I 1.46 | S 0.285 | Q 0.13 | F 1.59 | N 0.294 | M 0.752 | V 0.661
K42: L 1.82 | H 1.1 | V 1.23 | E 1.23 | P 0.483 | A 1.42 | I 1.59 | R 1.34 | Q 1.42 | T 1.19 | M 1.74 | G 0.621 | N 0.7 | F 1.38 | D 0.935 | S 1.13
T28: Q 0.473 | G 0.966 | P 0.562 | N 1.09 | V 1.17 | K 0.472 | W 1.19 | R 0.557 | C 1.98 | M 1.34 | I 1.31 | L 1.3 | A 0.936 | E 0.679 | F 1.32 | H 0.534 | Y 0.985 | D 0.797 | S 1.15
E29: F 1.47 | D 1.21 | G 1.32 | Y 1.18 | A 1.63 | V 1.65 | Q 1.41 | W 1.78 | R 1.62 | L 1.64 | T 1.55 | C 2.15 | I 1.76 | H 1.2 | K 1.52 | S 1.46 | N 1.26 | M 1.63 | P 1.78
K37: H 1.07 | C 2.06 | F 0.924 | D 0.975 | Y 0.938 | E 1.25 | G 0.864 | W 0.832 | I 1.15 | R 1.68 | V 1.05 | M 1.4 | L 1.51 | N 1.17 | Q 1.37 | A 1.5 | S 1.21 | T 1.26 | P -0.465
L35: W 0.882 | H 0.458 | F 0.799 | A 0.494 | R 0.542 | S 0.043 | I 1.15 | N 0.287 | P -0.141 | K 0.309 | M 0.714 | Q 0.486 | G 0.119 | T 0.38 | E 0.313 | Y 0.817 | V 0.702 | D 0.12
R40: F 1.1 | P -0.336 | W 1.23 | L 1.02 | S 0.38 | M 0.877 | H 0.662 | T 0.465 | A 0.53 | N 0.359 | G 0.155 | V 0.699 | D -0.199 | C 1.31 | I 0.776 | Q 0.495 | E -0.182 | K 0.773 | Y 1.69
